The chains are these.
B1: A. baumannii F1Fo-ATP synthase β-subunit, StrepII-tagged (natural protein, Acinetobacter baumannii, UniProt A3M144 1-464, looked up)
chain: MSSGRIIQIIGAVIDVEFERTSVPKIYDALQVDGTETTLEVQQQLGDGVVRTIAMGSTEGLKRGLTVTSTNAPISVPVGTATLGRIMDVLGRPIDEAGPVATEERLPIHRQAPSYAEQAASTDLLETGIKVIDLLCPFAKGGKVGLFGGAGVGKTVNMMELINNIAKAHSGLSVFAGVGERTREGNDFYHEMKDSNVLDKVAMVYGQMNEPPGNRLRVALTGLTMAEYFRDEKDENGKGRDVLLFVDNIYRYTLAGTEVSALLGRMPSAVGYQPTLAEEMGVLQERITSTKSGSITSIQAVYVPADDLTDPSPATTFAHLDATVVLSRDIASSGIYPAIDPLDSTSRQLDPLVVGQEHYEIARAVQNVLQRYKELKDIIAILGMDELAEEDKLVVYRARKIQRFFSQPFHVAEVFTGAPGKLVPLKETIRGFKGLLAGEYDHIPEQAFYMVGGIDEVIAKAEKL
notes: ATP synthase subunit beta, Acinetobacter baumannii; gene at 3815454-3814060 of GenBank CP053098.1, amplified from genomic DNA with a StrepII tag coded at the 5' end; Three copies stand in the complex; also called βDP*; βTP; not shown: StrepII, N-terminal, kept

Test in all cases: cryo-EM structure; single-particle cryo-EM of the whole F1Fo-ATP synthase purified from A. baumannii membranes via the StrepII tag on β and reconstituted into peptidiscs; three rotational states; buffer A (50 mM Hepes pH 6.8, 150 mM KCl, 5 mM MgCl2) without detergent
Data set [1] concerns the target T1, A. baumannii F1Fo-ATP synthase α-subunit (Acinetobacter baumannii ATCC 17978 …, UniProt A3M142 1-514).
T1 construct: ATP synthase subunit alpha, Acinetobacter baumannii ATCC 17978; Three copies stand in the complex (α3β3γδεab2c10); also called αDP; αE; source: endogenous, A. baumannii ATCC 17978 membranes
Particulars: both partners purified.

Data set [2] addresses T2, A. baumannii F1Fo-ATP synthase a-subunit (Acinetobacter baumannii ATCC 17978 …, UniProt A3M137 1-291).
T2 construct: ATP synthase subunit a, Acinetobacter baumannii ATCC 17978; S5A; also called proton-conducting a-subunit; source: endogenous, A. baumannii ATCC 17978 membranes
Particulars: both partners purified.

Data set [3] concerns the molecule itself.
Data set [4] has as its target B1. The note with it: both partners purified.
For data set [5], the target named is T3, A. baumannii F1Fo-ATP synthase γ-subunit (Acinetobacter baumannii ATCC 17978 …, UniProt A3M143 1-289).
T3 construct: ATP synthase subunit gamma, Acinetobacter baumannii ATCC 17978; source: endogenous, A. baumannii ATCC 17978 membranes
T3 sequence (looked up): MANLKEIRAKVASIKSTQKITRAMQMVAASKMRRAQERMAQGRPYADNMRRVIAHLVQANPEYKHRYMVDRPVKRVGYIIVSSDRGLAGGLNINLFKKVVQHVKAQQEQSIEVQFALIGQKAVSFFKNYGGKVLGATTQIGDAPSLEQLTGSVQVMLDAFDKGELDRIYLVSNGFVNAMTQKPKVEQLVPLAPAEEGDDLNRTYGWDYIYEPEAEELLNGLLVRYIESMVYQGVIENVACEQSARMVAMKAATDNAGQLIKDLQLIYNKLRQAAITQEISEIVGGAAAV
The note with it: both partners purified.

This note sets out measurements from paper PMC8849298, “Structure of ATP synthase from ESKAPE pathogen Acinetobacter baumannii” (Science Advances, 2022).

A word on the stoichiometry N: it is a count of units in the complex or per binding partner.

T1 sequence (A3M142 whole entry): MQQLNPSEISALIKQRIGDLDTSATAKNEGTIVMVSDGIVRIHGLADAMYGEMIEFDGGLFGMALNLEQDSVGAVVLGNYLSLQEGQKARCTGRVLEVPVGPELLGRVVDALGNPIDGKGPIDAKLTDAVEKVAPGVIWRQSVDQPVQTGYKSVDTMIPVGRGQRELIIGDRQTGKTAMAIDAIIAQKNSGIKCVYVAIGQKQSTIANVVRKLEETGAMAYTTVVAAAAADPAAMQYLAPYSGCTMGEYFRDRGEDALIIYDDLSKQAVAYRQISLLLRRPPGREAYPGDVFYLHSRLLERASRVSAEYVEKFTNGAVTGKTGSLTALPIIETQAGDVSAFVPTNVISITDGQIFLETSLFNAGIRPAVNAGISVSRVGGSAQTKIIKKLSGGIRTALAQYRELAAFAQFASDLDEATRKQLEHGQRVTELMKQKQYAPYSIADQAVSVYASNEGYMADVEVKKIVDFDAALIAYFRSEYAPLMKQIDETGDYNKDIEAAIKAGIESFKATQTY
T2 sequence (A3M137 whole entry): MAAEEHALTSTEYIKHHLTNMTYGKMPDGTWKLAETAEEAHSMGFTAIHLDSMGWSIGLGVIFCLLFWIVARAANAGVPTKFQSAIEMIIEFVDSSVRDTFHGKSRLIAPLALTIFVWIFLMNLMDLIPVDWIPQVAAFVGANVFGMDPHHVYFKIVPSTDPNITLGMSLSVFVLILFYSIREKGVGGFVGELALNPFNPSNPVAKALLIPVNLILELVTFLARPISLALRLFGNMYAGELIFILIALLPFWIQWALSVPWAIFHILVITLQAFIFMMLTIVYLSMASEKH

For the molecule B1, in data set [1], the binding result is given as “binds”.

B2: A. baumannii F1Fo-ATP synthase c-subunit (c10 ring) (natural protein, UniProt A3M139 1-81, looked up)
chain: MELTLGLVAIASAILIAFGALGTAIGFGLLGGRFLEAVARQPELAPQLQTRMFLIAGLLDAVPMIGVGIGLFFIFANPFVG
notes: ATP synthase subunit c, Acinetobacter baumannii ATCC 17978; also called c-ring; source: endogenous, A. baumannii ATCC 17978 membranes; copies: 10
Take B2: the binding result in data set [2] was “binds”. Also, the “stoichiometry N” value in data set [3] stood at 10.

B3: A. baumannii F1Fo-ATP synthase ε-subunit (natural protein, UniProt A3M145 1-139, looked up)
chain: MATMQCDVVSVKESIYSGAVTMLIAKGAGGELGILPGHAPLVTLLQPGPIRVLLENGTEEIVYVSGGVLEVQPHVVTVLADTAIRADNLDEAAILEARKNAEQLLANQKSDLDSAAALAALAETAAQLETIRKIKNRAQ
notes: ATP synthase subunit epsilon, Acinetobacter baumannii ATCC 17978; also called subunit ε; source: endogenous, A. baumannii ATCC 17978 membranes
Consider B3, for which the binding result in data set [1], in data set [4] and in data set [5] was “binds” in each case.
